Reference: US20240270846A1 (published 2024)
Residue numbers refer to the chain shown, from its start. Numbers in names are those of the source.

B1: CE115HA000 K52D one-arm antibody (antibody, human IgG1, kappa, L234A L235A, N297A, name in Kabat numbering)
heavy: QVQLVESGGGVVQPGRSLRLSCAASGFTFSNAWMHWVRQAPGKGLEWVAQIDAKSNNYATYYAESVKGRFTISRDDSKNSLYLQMNSLKTEDTAVYYCRYVHYGAYYGVDAWGQGTTVTVSSASTKGPSVFPLAPSSKSTSGGTAALGCLVKDYFPEPVTVSWNSGALTSGVHTFPAVLQSSGLYSLSSVVTVPSSSLGTQTYICNVNHKPSNTKVDKKVEPKSCDKTHTCPPCPAPEAAGGPSVFLFPPKPKDTLMISRTPEVTCVVVDVSHEDPEVKFNWYVDGVEVHNAKTKPREEQYASTYRVVSVLTVLHQDWLNGKEYKCKVSNKALPAPIEKTISKAKGQPREPQVYTLPPSRCELTKNQVSLSCAVKGFYPSDIAVEWESNGQPENNYKTTPPVLDSDGSFFLVSKLTVDKSRWQQGNVFSCSVMHEALHNHYTQKSLSLSPDYKDDDDK
chain: EPKSSDKTHTCPPCPAPELLGGPSVFLFPPKPKDTLMISRTPEVTCVVVDVSHEDPEVKFNWYVDGVEVHNAKTKPREEQYNSTYRVVSVLTVLHQDWLNGKEYKCKVSNKALPAPIEKTISKAKGQPREPQVCTLPPSRDELTKNQVSLWCLVKGFYPSDIAVEWESNGQPENNYKTTPPVLDSDGSFFLYSKLTVDKSRWQQGNVFSCSVMHEALHNRYTQKSLSLSP
light: DIVMTQSPLSLPVTPGEPASISCRSSQSLVHSNRNTYLHWYQQKPGQAPRLLIYKVSNRFSGVPDRFSGSGSGTDFTLKISRVEAEDVGVYYCGQGTQVPYTFGQGTKLEIKRTVAAPSVFIFPPSDEQLKSGTASVVCLLNNFYPREAKVQWKVDNALQSGNSQESVTEQDSKDSTYSLSSTLTLSKADYEKHKVYACEVTHQGLSSPVTKSFNRGEC
notes: one-arm antibody
B2: CE115HA000 N31G one-arm antibody (antibody, human IgG1, kappa, L234A L235A, N297A, name in Kabat numbering)
heavy: B1 heavy with N31G, D52K
chain: B1 chain
light: B1 light
notes: one-arm antibody
B3: CE115HA000 N31Y one-arm antibody (antibody, human IgG1, kappa, L234A L235A, N297A, name in Kabat numbering)
heavy: B1 heavy with N31Y, D52K
chain: B1 chain
light: B1 light
notes: one-arm antibody
B4: CE115HA000 K52Y one-arm antibody (antibody, human IgG1, kappa, L234A L235A, N297A, name in Kabat numbering)
heavy: B1 heavy with D52Y
chain: B1 chain
light: B1 light
notes: one-arm antibody
B5: CE115HA000 N31W one-arm antibody (antibody, human IgG1, kappa, L234A L235A, N297A, name in Kabat numbering)
heavy: B1 heavy with N31W, D52K
chain: B1 chain
light: B1 light
notes: one-arm antibody
B6: CE115HA000 K52bL one-arm antibody (antibody, human IgG1, kappa, L234A L235A, N297A, name in Kabat numbering)
heavy: B1 heavy with D52K, K54L
chain: B1 chain
light: B1 light
notes: one-arm antibody
B7: CE115HA000 K52F one-arm antibody (antibody, human IgG1, kappa, L234A L235A, N297A, name in Kabat numbering)
heavy: B1 heavy with D52F
chain: B1 chain
light: B1 light
notes: one-arm antibody
B8: CE115HA000 K52bA one-arm antibody (antibody, human IgG1, kappa, L234A L235A, N297A, name in Kabat numbering)
heavy: B1 heavy with D52K, K54A
chain: B1 chain
light: B1 light
notes: one-arm antibody
B9: CE115HA000 N31D one-arm antibody (antibody, human IgG1, kappa, L234A L235A, N297A, name in Kabat numbering)
heavy: B1 heavy with N31D, D52K
chain: B1 chain
light: B1 light
notes: one-arm antibody
B10: CE115HA000 K52bY one-arm antibody (antibody, human IgG1, kappa, L234A L235A, N297A, name in Kabat numbering)
heavy: B1 heavy with D52K, K54Y
chain: B1 chain
light: B1 light
notes: one-arm antibody
B11: CE115HA000 K52E one-arm antibody (antibody, human IgG1, kappa, L234A L235A, N297A, name in Kabat numbering)
heavy: B1 heavy with D52E
chain: B1 chain
light: B1 light
notes: one-arm antibody
B12: CE115HA000 K52I one-arm antibody (antibody, human IgG1, kappa, L234A L235A, N297A, name in Kabat numbering)
heavy: B1 heavy with D52I
chain: B1 chain
light: B1 light
notes: one-arm antibody
B13: CE115HA000 K52bS one-arm antibody (antibody, human IgG1, kappa, L234A L235A, N297A, name in Kabat numbering)
heavy: B1 heavy with D52K, K54S
chain: B1 chain
light: B1 light
notes: one-arm antibody
B14: CE115HA000 K52bN one-arm antibody (antibody, human IgG1, kappa, L234A L235A, N297A, name in Kabat numbering)
heavy: B1 heavy with D52K, K54N
chain: B1 chain
light: B1 light
notes: one-arm antibody
B15: CE115HA000 K52bQ one-arm antibody (antibody, human IgG1, kappa, L234A L235A, N297A, name in Kabat numbering)
heavy: B1 heavy with D52K, K54Q
chain: B1 chain
light: B1 light
notes: one-arm antibody
B16: CE115HA000 N31I one-arm antibody (antibody, human IgG1, kappa, L234A L235A, N297A, name in Kabat numbering)
heavy: B1 heavy with N31I, D52K
chain: B1 chain
light: B1 light
notes: one-arm antibody
B17: CE115HA000 K52W one-arm antibody (antibody, human IgG1, kappa, L234A L235A, N297A, name in Kabat numbering)
heavy: B1 heavy with D52W
chain: B1 chain
light: B1 light
notes: one-arm antibody
B18: CE115HA000 N31K one-arm antibody (antibody, human IgG1, kappa, L234A L235A, N297A, name in Kabat numbering)
heavy: B1 heavy with N31K, D52K
chain: B1 chain
light: B1 light
notes: one-arm antibody
B19: CE115HA000 K52R one-arm antibody (antibody, human IgG1, kappa, L234A L235A, N297A, name in Kabat numbering)
heavy: B1 heavy with D52R
chain: B1 chain
light: B1 light
notes: one-arm antibody
B20: CE115HA000 K64E one-arm antibody (antibody, human IgG1, kappa, L234A L235A, N297A, name in Kabat numbering)
heavy: B1 heavy with D52K, K67E
chain: B1 chain
light: B1 light
notes: one-arm antibody
B21: CE115HA000 N31F one-arm antibody (antibody, human IgG1, kappa, L234A L235A, N297A, name in Kabat numbering)
heavy: B1 heavy with N31F, D52K
chain: B1 chain
light: B1 light
notes: one-arm antibody
B22: CE115HA000 K52bR one-arm antibody (antibody, human IgG1, kappa, L234A L235A, N297A, name in Kabat numbering)
heavy: B1 heavy with D52K, K54R
chain: B1 chain
light: B1 light
notes: one-arm antibody
B23: CE115HA000 N31A one-arm antibody (antibody, human IgG1, kappa, L234A L235A, N297A, name in Kabat numbering)
heavy: B1 heavy with N31A, D52K
chain: B1 chain
light: B1 light
notes: one-arm antibody
B24: CE115HA000 K52S one-arm antibody (antibody, human IgG1, kappa, L234A L235A, N297A, name in Kabat numbering)
heavy: B1 heavy with D52S
chain: B1 chain
light: B1 light
notes: one-arm antibody
B25: CE115HA000 N31S one-arm antibody (antibody, human IgG1, kappa, L234A L235A, N297A, name in Kabat numbering)
heavy: B1 heavy with N31S, D52K
chain: B1 chain
light: B1 light
notes: one-arm antibody
B26: CE115HA000 K52N one-arm antibody (antibody, human IgG1, kappa, L234A L235A, N297A, name in Kabat numbering)
heavy: B1 heavy with D52N
chain: B1 chain
light: B1 light
notes: one-arm antibody
B27: CE115HA000 K52bD one-arm antibody (antibody, human IgG1, kappa, L234A L235A, N297A, name in Kabat numbering)
heavy: B1 heavy with D52K, K54D
chain: B1 chain
light: B1 light
notes: one-arm antibody
B28: CE115HA000 N31R one-arm antibody (antibody, human IgG1, kappa, L234A L235A, N297A, name in Kabat numbering)
heavy: B1 heavy with N31R, D52K
chain: B1 chain
light: B1 light
notes: one-arm antibody
B29: CE115HA000 N31Q one-arm antibody (antibody, human IgG1, kappa, L234A L235A, N297A, name in Kabat numbering)
heavy: B1 heavy with N31Q, D52K
chain: B1 chain
light: B1 light
notes: one-arm antibody
B30: CE115HA000 K64A one-arm antibody (antibody, human IgG1, kappa, L234A L235A, N297A, name in Kabat numbering)
heavy: B1 heavy with D52K, K67A
chain: B1 chain
light: B1 light
notes: one-arm antibody
B31: CE115HA000 K52H one-arm antibody (antibody, human IgG1, kappa, L234A L235A, N297A, name in Kabat numbering)
heavy: B1 heavy with D52H
chain: B1 chain
light: B1 light
notes: one-arm antibody
B32: CE115HA000 K64D one-arm antibody (antibody, human IgG1, kappa, L234A L235A, N297A, name in Kabat numbering)
heavy: B1 heavy with D52K, K67D
chain: B1 chain
light: B1 light
notes: one-arm antibody
B33: CE115HA000 N31H one-arm antibody (antibody, human IgG1, kappa, L234A L235A, N297A, name in Kabat numbering)
heavy: B1 heavy with N31H, D52K
chain: B1 chain
light: B1 light
notes: one-arm antibody

The binders below were run against T1, CD3 epsilon homodimer protein (UniProt P07766 23-126) (assay: SPR Biacore T200, antibody over immobilised CD3e homodimer;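 also: CD3 epsilon homodimer amine-coupled on a CM4 chip, run at 25 °C in HBS-EP+, Z = bound amount of each single-residue H chain variant over that of the parent antibody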).
T1 construct: also called CD3 (CD3 epsilon)
T1 sequence (P07766 23-126): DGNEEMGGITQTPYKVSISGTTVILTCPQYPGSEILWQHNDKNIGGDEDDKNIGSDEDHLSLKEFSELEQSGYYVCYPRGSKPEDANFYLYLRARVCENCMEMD

Row | Binder | ratio of amounts bound (Z=Y/X vs CE115HA000)
1 | B1 | 0.25
2 | B2 | 0.39
3 | B3 | 0.64
4 | B4 | 0.18
5 | B5 | 0.63
6 | B6 | 0.61
7 | B7 | 0.17
8 | B8 | 0.67
9 | B9 | 0.37
10 | B10 | 0.74
11 | B11 | 0.26
12 | B12 | 0.33
13 | B13 | 0.68
14 | B14 | 0.27
15 | B15 | 0.6
16 | B16 | 0.81
17 | B17 | 0.22

Row | Binder | ratio of amounts bound (Z=Y/X vs CE115HA000)
18 | B18 | 1.01
19 | B19 | 0.91
20 | B20 | 0.74
21 | B21 | 0.62
22 | B22 | 1.11
23 | B23 | 0.5
24 | B24 | 0.28
25 | B25 | 0.81
26 | B26 | 0.34
27 | B27 | 0.27
28 | B28 | 1.14
29 | B29 | 0.49
30 | B30 | 0.82
31 | B31 | 0.22
32 | B32 | 0.72
33 | B33 | 0.68
